In experiment [1] the target is PP1alpha 7-330 (Homo sapiens) (UniProt P62136). The experiment is described as follows: SPR. Particulars: cited from earlier work.
Experiment [2] deals with T1, SDS22_(56-360):PP1α_(7-330) complex (UniProt Q15435 56-360; P62136 7-330).
T1 construct: SDS22 (PPP1R7), residues 56-360; Protein phosphatase 1 alpha catalytic subunit (PP1α), residues 7-330; PP1 in this complex lacks the M1 metal; The same complex treated with EDTA (M2 metal extracted) is kept as this molecule and told apart by assay a4; the His6 tag of SDS22 was cleaved, so it is probably His6-PP1; also called SDS22:PP1; SDS22:PP1_(M2-metal-free) / metal-free …
T1 sequence (Q15435 56-360, chain 1 of 2): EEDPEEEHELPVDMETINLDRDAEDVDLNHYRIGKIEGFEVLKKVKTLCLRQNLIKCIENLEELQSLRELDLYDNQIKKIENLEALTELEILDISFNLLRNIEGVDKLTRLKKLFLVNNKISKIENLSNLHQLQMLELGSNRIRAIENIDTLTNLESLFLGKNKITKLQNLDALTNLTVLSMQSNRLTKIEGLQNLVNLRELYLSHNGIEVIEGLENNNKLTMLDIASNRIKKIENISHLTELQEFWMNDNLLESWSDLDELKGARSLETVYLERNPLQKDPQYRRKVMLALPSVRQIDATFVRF
T1 sequence (P62136 7-330, chain 2 of 2): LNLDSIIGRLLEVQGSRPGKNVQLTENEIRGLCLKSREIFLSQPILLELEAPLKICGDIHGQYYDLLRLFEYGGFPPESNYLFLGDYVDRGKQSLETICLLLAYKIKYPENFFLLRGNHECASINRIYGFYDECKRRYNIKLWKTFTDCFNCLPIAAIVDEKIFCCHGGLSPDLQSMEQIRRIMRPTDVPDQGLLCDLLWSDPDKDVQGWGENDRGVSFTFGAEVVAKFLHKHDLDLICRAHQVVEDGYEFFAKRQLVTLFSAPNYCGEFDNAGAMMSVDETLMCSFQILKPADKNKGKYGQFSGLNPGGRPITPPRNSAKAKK
Briefly: SPR; His6-PP1 constructs or SDS22_(56-360):PP1α_(7-330) captured on a Ni-NTA chip (NiHC200M), I3 and variants injected; 25 °C; 20 mM Tris pH 8.0, 500 mM NaCl, 0.5 mM TCEP, 0.05% Tween-20; one-to-one one-state or two-state fit. The note with it: both partners purified.

A further experiment has as its target T2, PP1α_(1-330) (UniProt P62136 1-330).
T2 construct: Protein phosphatase 1 alpha catalytic subunit (PP1α), residues 1-330; also called Protein Phosphatase 1
The experiment is described as follows: NMR titration; 2D [1H,15N] HSQC of 15N-labelled I3_(1-126) free and in complex; loss of cross-peaks on binding; 283 K, 20 mM Bis-Tris pH 6.8, 500 mM NaCl, 0.5 mM TCEP. The note with it: both partners purified.

PP1alpha 7-330 (Homo sapiens), sequence (P62136 7-330): as the sequence (P62136 7-330, chain 2 of 2) above
T2 sequence (P62136 whole entry, the tested form may be a part): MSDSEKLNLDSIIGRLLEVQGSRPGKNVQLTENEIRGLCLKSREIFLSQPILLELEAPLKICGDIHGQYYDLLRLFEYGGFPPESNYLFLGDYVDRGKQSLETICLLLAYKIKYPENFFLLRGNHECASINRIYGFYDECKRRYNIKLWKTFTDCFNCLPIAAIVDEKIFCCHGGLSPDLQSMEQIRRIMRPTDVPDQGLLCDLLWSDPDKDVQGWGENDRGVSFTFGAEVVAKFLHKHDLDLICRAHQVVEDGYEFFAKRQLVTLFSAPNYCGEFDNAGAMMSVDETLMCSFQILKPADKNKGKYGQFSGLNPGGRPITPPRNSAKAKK

On to I3 27-68 (from UniProt O60927), for which the Kd (commonly a measure of binding affinity in units of concentration) in experiment [1] was 10 nM.

With I3 1-126 (from UniProt O60927), the Kd in experiment [1] was 10 nM.

B1: Inhibitor-3 (I3), I3_(1-126) (natural protein, human, UniProt O60927 1-126, looked up)
chain: MAEAGAGLSETVTETTVTVTTEPENRSLTIKLRKRKPEKKVEWTSDTVDNEHMGRRSSKCCCIYEKPRAFGESSTESDEEEEEGCGHTHCVRGHRKGRRRATLGPTPTTPPQPPDPSQPPPGPMQH
notes: 15N-labelled in the NMR experiments, unlabelled in SPR; also called FL I3; PPP1R11; source: E. coli BL21 (DE3), purified (Ni-NTA, TEV, heat 95 °C, SEC); not shown: His6, N-terminal, cleaved; MBP, N-terminal, cleaved
On to B1, for which, in experiment [2], the Kd came to 132 ± 5 nM. For the same molecule, in the experiment with PP1α_(1-330), the binding result was “binds”.

B2: I3_(1-126) C60S/C61S/C62S (natural protein, human, UniProt O60927 1-126, looked up)
chain: MAEAGAGLSETVTETTVTVTTEPENRSLTIKLRKRKPEKKVEWTSDTVDNEHMGRRSSKSSSIYEKPRAFGESSTESDEEEEEGCGHTHCVRGHRKGRRRATLGPTPTTPPQPPDPSQPPPGPMQH
notes: also called I3_(1-126) SSS; I3 SSS; source: E. coli BL21 (DE3), purified (Ni-NTA, TEV, heat 95 °C, SEC); not shown: His6, N-terminal, cleaved; MBP, N-terminal, cleaved
The molecule B2 came in with a Kd in experiment [2] of 400 ± 44 nM.

Source of the values: article PMC10776994, “The SDS22:PP1:I3 complex: SDS22 binding to PP1 loosens the active site metal to prime metal exchange” (The Journal of Biological Chemistry, 2023).
